Tests used:
NMR titration = target: the molecule itself; experiment: NMR titration
GR DBD = GR DBD (UniProt P04150 417-506); experiment: fluorescence polarization

| Binder | binding result (NMR titration) | binding result (GR DBD) |
| --- | --- | --- |
| Glucocorticoid receptor DNA binding domain (GR DBD, residues 417-506), 15N-labelled (domain or fragment, UniProt P04150 417-506, looked up, 15N-labelled) PPKLCLVCSDEASGCHYGVLTCGSCKVFFKRAVEGQHNYLCAGRNDCIIDKIRRKNCPACRYRKCLQAGMNLEARKTKKKIKGIQQATTG | binds | – |
| IL1a TRE (FP) (dsDNA) DNA 1: GAAGAAGACTGACTCTCAGGCTTAAGC DNA 2: GCTTAAGCCTGAGAGTCAGTCTTCTTC | – | binds |
| VCAM1 TRE (FP) (dsDNA) DNA 1: TTCCGGCTGACTCATCAAGCG DNA 2: CGCTTGATGAGTCAGCCGGAA | – | binds |
| MMP13 TRE (FP) (dsDNA) DNA 1: ATAAGTGATGACTCACCATTGCA DNA 2: TGCAATGGTGAGTCATCACTTAT | – | binds |
